Assay results reported in US10603364B2, “Lysosomal targeting and uses thereof” (Shire Human Genetic Therapies, Inc., priority 2014, dated 2020).

Experiments:
[1] = target: T1, recombinant 6×Histidine tagged human SORT1 (Homo sapiens, UniProt Q99523); assay: Surface plasmone resonance binding of Naglu-SPP to SORT1
T1 sequence (Q99523 78-831): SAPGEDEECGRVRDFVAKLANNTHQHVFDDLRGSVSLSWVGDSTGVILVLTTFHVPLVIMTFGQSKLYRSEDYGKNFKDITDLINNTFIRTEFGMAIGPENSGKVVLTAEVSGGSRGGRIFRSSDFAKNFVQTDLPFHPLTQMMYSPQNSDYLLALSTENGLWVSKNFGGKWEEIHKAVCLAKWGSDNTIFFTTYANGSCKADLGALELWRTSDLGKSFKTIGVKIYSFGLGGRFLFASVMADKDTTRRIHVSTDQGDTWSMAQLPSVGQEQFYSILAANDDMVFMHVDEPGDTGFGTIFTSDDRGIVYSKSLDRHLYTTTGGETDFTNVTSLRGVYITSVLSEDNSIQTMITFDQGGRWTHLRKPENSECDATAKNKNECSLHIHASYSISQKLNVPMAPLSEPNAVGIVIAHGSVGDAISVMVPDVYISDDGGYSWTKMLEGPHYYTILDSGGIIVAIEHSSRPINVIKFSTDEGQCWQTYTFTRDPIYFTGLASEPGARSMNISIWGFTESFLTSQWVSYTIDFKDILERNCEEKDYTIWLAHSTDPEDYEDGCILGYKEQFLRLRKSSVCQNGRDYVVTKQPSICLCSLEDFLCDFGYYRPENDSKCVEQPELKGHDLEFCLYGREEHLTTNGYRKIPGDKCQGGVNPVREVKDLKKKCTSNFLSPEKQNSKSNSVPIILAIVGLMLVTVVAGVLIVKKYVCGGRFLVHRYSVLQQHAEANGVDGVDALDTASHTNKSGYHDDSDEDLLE
Protocol: Studies were also carried out to determine the binding properties of Naglu-SPP and evaluate its specificity for SORT1 by surface plasmone resonance (SPR), a commonly used standard technique. Briefly, anti-His mAb (capturing molecule) was diluted in immobilization buffer and bound on the dextran surface of a SPR sensor chip housed in a microfluidic system. Next, a solution containing recombinant 6×Histidine tagged human SORT1 (ligand) was injected into the microflow system and run over the surface-bound anti-His mAbs to form a “capture complex.” A solution containing purified Naglu-SPP protein (analyte) was then injected into the device. As the solution moved over the SPR sensor chip, the analyte bound to the capture complex and an increase in SPR signal (expressed in response units, RU) was observed. Finally, a solution without analyte was injected into the microfluidic device to detach bound […] from the capture complex, resulting in a decrease in SPR signal. The detailed experimental conditions are described in Table 6 below.

[2] = system: SORT1 overexpressing cells; assay: Cellular uptake in Sortilin overexpressing cells (intracellular Naglu enzyme activity); format: cell-based; details: absence of Neurotensin
Protocol: A cell line was established overexpressing SORT1, using standard technologies known in the art. […] After a specified period of time, the supernatant was removed and the cells were washed repeatedly. Then, cells were lysed and each sample was assayed for Naglu enzyme activity.

[3] = system: SORT overexpressing cells; assay: Immunofluorescence microscopy of cellular entry and lysosomal targeting (Naglu / Lamp-1); format: cell-based
Protocol: Studies were carried out using immunofluorescence microscopy to evaluate cellular entry and lysosomal targeting. For these studies, SORT overexpressing cells were treated with vehicle control or Naglu-SPP and then fixed and prepared for staining. Both vehicle control (FIG. 6A) and Naglu-SPP (FIG. 6B) treated cells were stained using antibodies specific for human Naglu and Lamp-1, a lysosome-specific protein biomarker.

wild-type rats [4] = assay: Naglu enzyme activity in liver and brain after intrathecal administration (biodistribution); format: in vivo; details: 385 ug/animal
Protocol: (§1) To evaluate biodistribution of the SORT1-binding Naglu fusion proteins, an in vivo study was conducted using wild-type rats subjected to intrathecal administration of vehicle control (PBS), rhNaglu, Naglu-IGFII, Naglu-SPP, Naglu-SapDC or Naglu-tPRGN. Details of the experimental design are provide in Table 9 below. Previous experiments had shown that Naglu-IGFII but not rhNaglu penetrates into brain tissue and is targeted to lysosomes after intrathecal injection. Accordingly, rhNaglu and Naglu-IGFII were utilized in this study as negative and positive controls, respectively.
Rats were sacrificed either 4 or 24 hours post intrathecal administration of the respective fusion protein and total Naglu enzyme activity in the animals' liver and brain tissue was determined using a well-established enzyme activity assay (FIGS. 7A and B). Briefly, brain and liver tissue homogenates were prepared and incubated in the presence of a Naglu specific substrate, i.e., methylumbelliferyl-N-acetyl-α-D-glucosainide; accumulation of cleavage product was then measured by examining fluorescence intensity at 360/460 nm (excitation/emission) using a fluorescent plate reader.

wild-type rats [5] = assay: Immunohistochemistry of Naglu protein in brain tissue after intrathecal administration; format: in vivo
Protocol: as §1
Rats were sacrificed either 4 or 24 hours post intrathecal administration of the respective fusion protein. Brain tissue samples were collected, fixed in 10% NBF and processed for paraffin embedding. 5 μm paraffin sections from each tissue assayed were subjected to immunostaining using an anti-human Naglu antibody.

Naglu KO mice [6] = assay: Naglu enzyme activity in tissues of Naglu KO mice after intrathecal administration; format: in vivo; details: 520 mg/kg brain, 24 hrs post final dose
Protocol: (§2) To evaluate the in vivo activity of Naglu-SPP and its efficacy as a therapeutic for the treatment of lysosomal storage diseases, particularly San B, Naglu-SPP was administered to Naglu KO mice via intrathecal injection. Intrathecal administration of Naglu-IGFII served as a positive control. The experimental conditions used for this assay are described in Tables 10 and 11 below.
24 hours after intrathecal administration of each respective fusion protein, Naglu KO mice were sacrificed and Naglu enzyme activity in various tissues was assayed. Total Naglu activity was evaluated using a well-established enzyme activity assay. Briefly, tissue homogenate was incubated in the presence of the Naglu specific substrate methylumbelliferyl-N-acetyl-α-D-glucosainide, and accumulation of cleavage product was measured by examining fluorescence intensity at 360/460 nm (excitation/emission) using a fluorescent plate reader. […] This increase in enzyme activity was observed over the duration of the 3 week treatment period.

Naglu KO mice [7] = assay: Immunohistochemical staining of Lamp-1, GFAP and Iba-1 in brain and liver; format: in vivo; details: intrathecal
Protocol: as §2
The lysosomal targeting of Naglu-SPP and Naglu-IGFII was further examined by immunohistochemical analysis. Tissue samples were collected, fixed in 10% NBF and processed for paraffin embedding. For each tissue assayed, 5 μm paraffin sections was subjected to immunostaining using antibodies against lamp lysosomal associated membrane protein 1 (Lamp-1), glial fibrillary acidic protein (GFAP) and the ionized calcium-binding adapter molecule 1 (Iba-1).

B1: Naglu-SPP: Fusion protein of human Naglu and SORT1 propeptide (SPP) via GAG3 linker; SEQ ID NO:17 (full-length), SEQ ID NO:22 (protein)
chain: MEAVAVAAAVGVLLLAGAGGAAGDEAREAAAVRALVARLLGPGPAADFSVSVERALAAKPGLDTYSLGGGGAARVRVRGSTGVAAAAGLHRYLRDFCGCHVAWSGSQLRLPRPLPAVPGELTEATPNRYRYYQNVCTQSYSFVWWDWARWEREIDWMALNGINLALAWSGQEAIWQRVYLALGLTQAEINEFFTGPAFLAWGRMGNLHTWDGPLPPSWHIKQLYLQHRVLDQMRSFGMTPVLPAFAGHVPEAVTRVFPQVNVTKMGSWGHFNCSYSCSFLLAPEDPIFPIIGSLFLRELIKEFGTDHIYGADTFNEMQPPSSEPSYLAAATTAVYEAMTAVDTEAVWLLQGWLFQHQPQFWGPAQIRAVLGAVPRGRLLVLDLFAESQPVYTRTASFQGQPFIWCMLHNFGGNHGLFGALEAVNGGPEAARLFPNSTMVGTGMAPEGISQNEVVYSLMAELGWRKDPVPDLAAWVTSFAARRYGVSHPDAGAAWRLLLRSVYNCSGEACRGHNRSPLVRRPSLQMNTSIWYNRSDVFEAWRLLLTSAPSLATSPAFRYDLLDLTRQAVQELVSLYYEEARSAYLSKELASLLRAGGVLAYELLPALDEVLASDSRFLLGSWLEQARAAAVSEAEADFYEQNSRYQLTLWGPEGNILDYANKQLAGLVANYYTPRWRLFLEALVDSVAQGIPFQQHQFDKNVFQLEQAFVLSKQRYPSQPRGDTVDLAKKIFLKYYPRWVAGSWGAPGGGGGAAAAAGGGGGGAPGGGGGAAAAAGGGGGGAPGGGGGAAAAAGGGGGGAPQDRLDAPPPPAAPLPRWSGPIGVSWGLRAAAAGGAFPRGGRWRR
[1]; SPR, Naglu-SPP 0 to 20 nM
  average association constant (Ka): approximately 1.1×10^6 1/Ms
  dissociation constant (Kd): approximately 7.1×10^−4 1/s
[1]; all concentrations tested (0 to 20 nM)
  binding to SORT1: strong binding
[2]
  Bmax of binding/uptake: 1260 nmol/h/mg
  cellular internalization (intracellular Naglu activity): effectively internalized
[3]
  intracellular localization of Naglu fluorescence (co-localization with Lamp-1): localized predominantly within lysosomal vesicles
wild-type rats [4]
  rank of Naglu enzyme activity in brain among treatments: highest activity
wild-type rats [4]; 4 or 24 hours post dose
  Naglu enzyme activity in brain: markedly elevated levels
wild-type rats [5]; 4 and 24 hours post treatment
  Naglu immunostaining in cerebral cortex / brain parenchyma: positive staining
wild-type rats [5]; 24 hours post injection
  Naglu immunostaining in cerebellum and hippocampal region: strong Naglu signal
Naglu KO mice [6]
  Naglu activity in liver and brain tissue vs vehicle control: dramatic increase
Naglu KO mice [7]; 2× weekly and 3× weekly
  Lamp-1 immunostaining in brain (cerebral cortex, cerebellum, thalamus, striatum, white matter): decrease
Naglu KO mice [7]; three weekly deliveries
  Lamp-1 immunoreactivity in liver: reduced significantly
Naglu KO mice [7]; three weekly injections
  GFAP staining in cerebral cortex and cerebellum (astrocytes): reduced signal
  Iba-1 staining in cerebral cortex and cerebellum (microglial cells): microglial cells are reduced in size and have a smaller number of processes
